# According to patent US20160058881A1, “PRODRUGS WITH PROLONGED ACTION” (INDIANA UNIVERSITY RESEARCH AND TECHNOLOGY CORPORATION, priority 2013, published 2016):
# Non-standard residues stand in square brackets, D forms with d. Groups on a side chain read outwards from the residue. No end group written: not given here. *: point of attachment. Docosanoyl = CCCCCCCCCCCCCCCCCCCCCC(=O)*; Phe(4-NH2) = Nc1ccc(C[C@H](N)C(=O)O)cc1; Aib = CC(C)(N)C(=O)O; Sar = CNCC(=O)O
# Experiments:
# GLP-1 receptor [1] = molecular target: T1, GLP-1 receptor (Homo sapiens, UniProt P43220); assay: GLP-1 agonist activity, cAMP production in an in vitro assay; assay type: cell-based; conditions: versus glucagon receptor
# T1 sequence (P43220 24-463): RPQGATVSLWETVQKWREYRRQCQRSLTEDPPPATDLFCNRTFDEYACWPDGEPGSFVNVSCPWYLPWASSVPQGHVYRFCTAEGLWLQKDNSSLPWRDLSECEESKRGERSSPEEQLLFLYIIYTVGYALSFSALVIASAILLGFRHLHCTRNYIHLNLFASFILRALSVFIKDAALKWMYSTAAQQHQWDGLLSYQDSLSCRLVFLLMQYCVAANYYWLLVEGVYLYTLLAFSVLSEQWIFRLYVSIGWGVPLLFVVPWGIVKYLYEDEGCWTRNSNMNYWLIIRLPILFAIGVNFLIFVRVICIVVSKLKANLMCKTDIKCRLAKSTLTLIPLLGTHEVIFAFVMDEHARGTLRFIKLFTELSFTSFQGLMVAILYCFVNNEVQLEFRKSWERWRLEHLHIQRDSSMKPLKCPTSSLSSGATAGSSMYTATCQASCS
# Description: Receptor activation can be measured by in vitro assays measuring cAMP induction in HEK293 cells over-expressing the receptor, e.g. assaying HEK293 cells co-transfected with DNA encoding the receptor and a luciferase gene linked to cAMP responsive element as described in the examples.
# [2] = test system: diet induced obese (DIO) mice; assay: In vivo effects of alternate prodrug injection schemes in DIO mice (Example 7); design: species or system mice (strain: C57B16); conditions: s.c., 40 nmol/kg once, 20 nmol/kg twice, or 10 nmol/kg daily for four days
# Experimental: C22 acylated versions of Peptide D were also tested for their in vivo effects in diet induced obese (DIO) mice (strain: C57B16) following alternative administration schedules. Two groups of eight mice (with an initial average body weight of 65 g) were subcutaneously injected once with 40 nmol/kg of Peptide D (parent peptide without acylation and without a dipeptide prodrug moiety), or 40 nmol/kg of a Peptide D with C22 acylation via the dipetide prodrug moiety. Three groups of eight mice were subcutaneously injected twice (1 day between injections, e.g., Monday-Wednesday) with vehicle only, 20 nmol/kg of Peptide D (parent peptide), or 20 nmol/kg of a Peptide D C22 acylated prodrug. Finally, three groups of eight mice were subcutaneously injected daily for four days with vehicle only, 10 nmol/kg of Peptide D (parent peptide), or 10 nmol/kg of a Peptide D C22 acylated prodrug.
# [3] = test system: diet induced obesity (DIO) mice; assay: In vivo effects of daily prodrug injection in DIO mice (Example 6); design: species or system mice (strain: C57B16); conditions: s.c. daily for 5 days, 10 nmol/kg
# Experimental: C22 acylated versions of Peptide D were also tested for their in vivo effects in diet induced obesity (DIO) mice (strain: C57B16) following daily administrations. Nine groups of eight mice (with an initial average body weight of 65 g) were subcutaneously injected daily for 5 days with vehicle only or 3 nmol/kg or 10 nmol/kg of Peptide D (parent peptide), a Peptide D with C22 acylation via the prodrug dipeptide moiety and Peptide D with a C22 acyl group linked directly to the 4-amino phenylalanine at position 10. The mice were 11 months old and had been on a high fat diet for approximately 2 months. Body weight was monitored for a week following injection and was measured on Day 0, 1, 2, 3, 4 and 7, wherein Day 0 was the day of injection (FIG. 4A, 4B).
# GLP-1 receptor [4] = molecular target: T1, GLP-1 receptor; assay: GLP-receptor luciferase bioassay of samples incubated in 20% human plasma (restored activity); assay type: cell-based; conditions: 37° C.; for Change of activity over the time points in plasma: 0 to 5 d
# Experimental: To explore the possible formation of DKP and simultaneous regeneration of the parent drug, the above-mentioned peptides were incubated in 20% human plasma at 37° C. for approximately 5 days. Samples were collected at different time points (0, 1, 2, and 5 days).
# [5] = test system: diet induced obesity (DIO) mice; assay: In vivo effects in DIO mice, single injection (Example 4); design: species or system mice (strain: C57B16); conditions: single s.c. injection, lower dose (10 nmol/kg), Day 0-5
# Experimental: The Peptide D prodrug described in Example 3 was tested for its in vivo effects in diet induced obesity (DIO) mice (strain: C57B16). Nine groups of eight mice (with an initial average body weight of 50 g) were subcutaneously injected with vehicle only or 10 nmol/kg or 50 nmol/kg of a Peptide D acylated prodrug of Example 3, the parent peptide (i.e., Peptide D lacking an acylated dipeptide prodrug moiety), Peptide D with an acylated lysine residue linked directly the 4-amino phenylalanine at position 10, or the following peptide: YAib[…](γEγE-C16)[…]ib[…] (SEQ ID NO: 3082) (Peptide F). The mice were 6 months old and had been on a high fat diet for approximately 2 months. Body weight was monitored for a week following injection and was measured on Day 0, 1, 2, and 5, wherein Day 0 was the day of injection (FIG. 2).
# [6] = test system: diet induced obesity (DIO) mice; assay: In vivo effects of acyl chain length variants in DIO mice, single injection (Example 5); design: species or system mice (strain: C57B16); conditions: single s.c. injection, 10 nmol/kg, Day 0-7
# Experimental: The Peptide D variants described above were also tested for their in vivo effects in diet induced obesity (DIO) mice (strain: C57B16). Nine groups of eight mice (with an initial average body weight of 50 g) were subcutaneously injected with vehicle only, or 10 nmol/kg of a Peptide D with C18 acylation via the dipeptide prodrug moiety (as described in Example 3), the parent peptide (i.e., Peptide D lacking acylation and lacking a dipeptide prodrug moiety), Peptide D with a C18 acyl group linked directly to the 4-amino phenylalanine at position 10, a Peptide D with C20 acylation via the dipeptide prodrug moiety, Peptide D with a C20 acyl group linked directly to the 4-amino phenylalanine at position 10, a Peptide D with C22 acylation via the dipeptide prodrug moiety, and Peptide D with a C22 acyl group linked directly to the 4-amino phenylalanine at position 10. The mice were 6 months old and had been on a high fat diet for approximately 2 months. Body weight was monitored for a week following injection and was measured on Day 0, 1, 2, 5, and 7 wherein Day 0 was the day of injection (FIG. 3A, 3B).
# [7] = after last injection on day 4 to day 7
Substance,selectivity for the GLP-1 receptor (GLP-1 receptor [1]),Body weight (weight loss compared to the parent peptide) [2],"Body weight [3, 7]",Body weight ([3]; through day 4),Restored (activity relative to parent peptide) (GLP-1 receptor [4]; 0 d),Change of activity over the time points in plasma (GLP-1 receptor [4]),Restored (activity relative to parent peptide) (GLP-1 receptor [4]; 1 d),Restored (activity relative to parent peptide) (GLP-1 receptor [4]; 5 d),Body weight [5],Body weight [6]
SEQ ID NO: 22: glucagon analog substituting the native glutamine at position 3 with glutamic acid,approximately a tenfold selectivity for the GLP-1 receptor,,,,,,,,,
"C22 attached to position 10 (via A-B prodrug): Peptide D with (d)Lysine-sarcosine dipeptide on 4-amino group of phenylalanine at position 10, C22 acyl on epsilon amino of (d)Lysine (F[Aib]EGTFTSD[Phe(4-NH2)]([Sar-dK-Docosanoyl])SIYLDKQAA[Aib]EFVNWLLAGGPSSGAPPPS; not fully specified (C-terminus))",,more total and sustained weight loss,continued to lose weight through day 7,caused the most weight loss,Restored 36%,Activity Restored,Restored 57%,Restored 87%,,
"FAibEGTFTSDF(NH2)SIYLDKQAAAibEFVNWLLAGGPSSGAPPPS (F[Aib]EGTFTSD[Phe(4-NH2)]SIYLDKQAA[Aib]EFVNWLLAGGPSSGAPPPS-NH2; N-terminus assumed; SMILES CC[C@H](C)[C@H](NC(=O)[C@H](CO)NC(=O)[C@H](Cc1ccc(N)cc1)NC(=O)[C@H](CC(=O)O)NC(=O)[C@H](CO)NC(=O)[C@@H](NC(=O)[C@H](Cc1ccccc1)NC(=O)[C@@H](NC(=O)CNC(=O)[C@H](CCC(=O)O)NC(=O)C(C)(C)NC(=O)[C@@H](N)Cc1ccccc1)[C@@H](C)O)[C@@H](C)O)C(=O)N[C@@H](Cc1ccc(O)cc1)C(=O)N[C@@H](CC(C)C)C(=O)N[C@@H](CC(=O)O)C(=O)N[C@@H](CCCCN)C(=O)N[C@@H](CCC(N)=O)C(=O)N[C@@H](C)C(=O)N[C@@H](C)C(=O)NC(C)(C)C(=O)N[C@@H](CCC(=O)O)C(=O)N[C@@H](Cc1ccccc1)C(=O)N[C@H](C(=O)N[C@@H](CC(N)=O)C(=O)N[C@@H](Cc1c[nH]c2ccccc12)C(=O)N[C@@H](CC(C)C)C(=O)N[C@@H](CC(C)C)C(=O)N[C@@H](C)C(=O)NCC(=O)NCC(=O)N1CCC[C@H]1C(=O)N[C@@H](CO)C(=O)N[C@@H](CO)C(=O)NCC(=O)N[C@@H](C)C(=O)N1CCC[C@H]1C(=O)N1CCC[C@H]1C(=O)N1CCC[C@H]1C(=O)N[C@@H](CO)C(N)=O)C(C)C) [Parent peptide (Peptide D), Peptide D lacking acylation and lacking a dipeptide prodrug moiety]",,,began gaining weight,,,No change,,,"declined through day 1, but returned close to the starting weight by day 5","declined through day 1, but returned toward the starting weight by day 7"
